T1: IntI1(his)6 wild type (Pseudomonas aeruginosa Pa695 (class 1 …, UniProt Q7BP41 1-337))
T1 sequence: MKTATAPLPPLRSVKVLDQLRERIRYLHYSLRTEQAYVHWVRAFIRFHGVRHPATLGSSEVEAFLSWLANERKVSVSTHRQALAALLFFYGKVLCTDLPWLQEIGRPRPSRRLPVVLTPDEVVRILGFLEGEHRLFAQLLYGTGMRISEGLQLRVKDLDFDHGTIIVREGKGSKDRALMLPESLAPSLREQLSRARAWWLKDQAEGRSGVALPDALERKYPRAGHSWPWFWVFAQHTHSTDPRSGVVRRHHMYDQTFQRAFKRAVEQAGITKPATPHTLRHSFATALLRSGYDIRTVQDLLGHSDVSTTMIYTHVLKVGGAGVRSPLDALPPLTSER


Target: T1, IntI1(his)6 wild type
Experiment: EMSA; 20 min at 4 C in 20 ul, 0.1 pmol DNA, 1-10 pmol IntI1, 1% agarose gel at 4 C; filter wash buffer 20 mM HEPES pH 7.5, 10 mM MnCl2, 30 mM NaCl (pre-wash 10 mM NaCl, 100 ug/ml calf thymus DNA); exact binding buffer not given
Settings: protein: recombinant, tags: C-terminal His6 (pET101D-Topo), label: 5' 32P

Row | Binder | binding result (blunt) | binding result (single strand)
1 | attI1ds (dsDNA) DNA 1: ACGCCGTGGGTCGATGTTTGATGTTATGGAGCAGCAACGATGTTACGCAGCAGGGCAGTCGCCCTAAAACAAAGTTAGGTGGCTCAATGAGCATCATTGC DNA 2: GCAATGATGCTCATTGAGCCACCTAACTTTGTTTTAGGGCGACTGCCCTGCTGCGTAACATCGTTGCTGCTCCATAACATCAAACATCGACCCACGGCGT | binds | –
2 | attC bottom strand (attCbs) (ssDNA) DNA: AGTGCATCTAACGCCTGAGTTAAGCCGCGGTGCGCAGTGGCAAGCGGCGTGCGAAGCTTAGCGTAGCACGCAAGCGCCGCCACGAAGCAACGTCGGCTTGAACGAATTGTTAGACGGGCG | – | binds
3 | attC top strand (attCts) (ssDNA) DNA: CGCCCGTCTAACAATTCGTTCAAGCCGACGTTGCTTCGTGGCGGCGCTTGCGTGCTACGCTAAGCTTCGCACGCCGCTTGCCACTGCGCACCGCGGCTTAACTCAGGCGTTAGATGCACT | – | no binding

Reference: paper PMC2117344, “A New In Vitro Strand Transfer Assay for Monitoring Bacterial Class 1 Integron Recombinase IntI1 Activity”
